± gives the standard deviation of the averaged measurements.
Assay: total protein half-life in vivo (active degradation + dilution); higher = more stable protein
[1] = E. coli NCM3722 delta-clpP, growth: N-lim chemostat, doubling time 6 h
[2] = E. coli NCM3722 delta-hslV, growth: N-lim chemostat, doubling time 6 h
[3] = E. coli NCM3722 delta-lon, growth: N-lim chemostat, doubling time 6 h
[4] = E. coli NCM3722 delta-smpB, growth: N-lim chemostat, doubling time 6 h
[5] = wild type E. coli NCM3722, growth: C-lim chemostat, doubling time 3 h
[6] = wild type E. coli NCM3722, growth: C-lim chemostat, doubling time 6 h
[7] = wild type E. coli NCM3722, growth: C-lim chemostat, doubling time 12 h
[8] = wild type E. coli NCM3722, growth: N-lim chemostat, doubling time 6 h
[9] = wild type E. coli NCM3722, growth: N-lim chemostat, doubling time 12 h
[10] = wild type E. coli NCM3722, growth: P-lim chemostat, doubling time 6 h
[11] = wild type E. coli NCM3722, growth: P-lim chemostat, doubling time 12 h
[12] = E. coli NCM3722 delta-clpP delta-lon delta-hslV, growth: N-lim chemostat, doubling time 6 h

Row | Sequence | total protein half-life in vivo [1] [h] | total protein half-life in vivo [2] [h] | total protein half-life in vivo [3] [h] | total protein half-life in vivo [4] [h] | total protein half-life in vivo [5] [h] | total protein half-life in vivo [6] [h] | total protein half-life in vivo [7] [h] | total protein half-life in vivo [8] [h] | total protein half-life in vivo [9] [h] | total protein half-life in vivo [10] [h] | total protein half-life in vivo [11] [h] | total protein half-life in vivo [12] [h]
1 | MNDEMKGKSGKVKVMYVRSDDDSDKRTHNPRTGKGGGRPGKSRADGGRRPARDDKQSQPRDRKWEDSPWRTVSRAPGDETPEKADHGGISGKSFIDPEVLRRQRAEETRVYGENACQALFQSRPEAIVRAWFIQSVTPRFKEALRWMAANRKAYHVVDEAELTKASGTEHHGGVCFLIKKRNGTTVQQWVSQAGAQDCVLALENESNPHNLGGMMRSCAHFGVKGVVVQDAALLESGAAIRTAEGGAEHVQPITGDNIVNVLDDFRQAGYTVVTTSSEQGKPLFKTSLPAKMVLVLGQEYEGLPDAARDPNDLRVKIDGTGNVAGLNISVATGVLLGEWWRQNKA [P0AGJ5] | 5.71 ± 0.11 | 4.87 ± 0.12 | 5.2 ± 0.25 | 4.77 ± 0.058 | 2.91 ± 0.33 | 5.57 ± 0.52 | 10.3 ± 0.99 | 5.53 ± 0.15 | 10.7 ± 1.5 | 5.4 ± 0.26 | 10.9 ± 0.76 | –
2 | MLRMTPLASAIVALLLGIEAYAAEETFDTHFMIGGMKDQQVANIRLDDNQPLPGQYDIDIYVNKQWRGKYEIIVKDNPQETCLSREVIKRLGINSDNFASGKQCLTFEQLVQGGSYTWDIGVFRLDFSVPQAWVEELESGYVPPENWERGINAFYTSYYLSQYYSDYKASGNNKSTYVRFNSGLNLLGWQLHSDASFSKTNNNPGVWKSNTLYLERGFAQLLGTLRVGDMYTSSDIFDSVRFRGVRLFRDMQMLPNSKQNFTPRVQGIAQSNALVTIEQNGFVVYQKEVPPGPFAITDLQLAGGGADLDVSVKEADGSVTTYLVPYAAVPNMLQPGVSKYDLAAGRSHIEGASKQSDFVQAGYQYGFNNLLTLYGGSMVANNYYAFTLGAGWNTRIGAISVDATKSHSKQDNGDVFDGQSYQIAYNKFVSQTSTRFGLAAWRYSSRDYRTFNDHVWANNKDNYRRDENDVYDIADYYQNDFGRKNSFSANMSQSLPEGWGSVSLSTLWRDYWGRSGSSKDYQLSYSNNLRRISYTLAASQAYDENHHEEKRFNIFISIPFDWGDDVSTPRRQIYMSNSTTFDDQGFASNNTGLSGTVGSRDQFNYGVNLSHQHQGNETTAGANLTWNAPVATVNGSYSQSSTYRQAGASVSGGIVAWSGGVNLANRLSETFAVMNAPGIKDAYVNGQKYRTTNRNGVVIYDGMTPYRENHLMLDVSQSDSEAELRGNRKIAAPYRGAVVLVNFDTDQRKPWFIKALRADGQSLTFGYEVNDIHGHNIGVVGQGSQLFIRTNEVPPSVNVAIDKQQGLSCTITFGKEIDESRNYICQ | – | – | – | – | – | – | – | – | – | – | 9.63 | –
3 | MDAMKYNDLRDFLTLLEQQGELKRITLPVDPHLEITEIADRTLRAGGPALLFENPKGYSMPVLCNLFGTPKRVAMGMGQEDVSALREVGKLLAFLKEPEPPKGFRDLFDKLPQFKQVLNMPTKRLRGAPCQQKIVSGDDVDLNRIPIMTCWPEDAAPLITWGLTVTRGPHKERQNLGIYRQQLIGKNKLIMRWLSHRGGALDYQEWCAAHPGERFPVSVALGADPATILGAVTPVPDTLSEYAFAGLLRGTKTEVVKCISNDLEVPASAEIVLEGYIEQGETAPEGPYGDHTGYYNEVDSFPVFTVTHITQREDAIYHSTYTGRPPDEPAVLGVALNEVFVPILQKQFPEIVDFYLPPEGCSYRLAVVTIKKQYAGHAKRVMMGVWSFLRQFMYTKFVIVCDDDVNARDWNDVIWAITTRMDPARDTVLVENTPIDYLDFASPVSGLGSKMGLDATNKWPGETQREWGRPIKKDPDVVAHIDAIWDELAIFNNGKSA [P0AAB4] | 6.032 ± 0.049 | 6.88 ± 0.78 | 6.27 ± 0.71 | 6.38 ± 0.54 | 2.98 ± 0.37 | 6.29 ± 0.21 | 11.3 ± 0.45 | 5.82 ± 0.23 | 11.4 ± 0.32 | 5.99 ± 0.093 | 12.5 ± 0.62 | 6.47 ± 0.5
4 | MNNHFKCIGIVGHPRHPTALTTHEMLYRWLCTKGYEVIVEQQIAHELQLKNVKTGTLAEIGQLADLAVVVGGDGNMLGAARTLARYDIKVIGINRGNLGFLTDLDPDNAQQQLADVLEGHYISEKRFLLEAQVCQQDCQKRISTAINEVVLHPGKVAHMIEFEVYIDEIFAFSQRSDGLIISTPTGSTAYSLSAGGPILTPSLDAITLVPMFPHTLSARPLVINSSSTIRLRFSHRRNDLEISCDSQIALPIQEGEDVLIRRCDYHLNLIHPKDYSYFNTLSTKLGWSKKLF [P0A7B3] | 4.25 ± 0.11 | 5.35 ± 1.2 | 6.6 ± 1.1 | 4.75 ± 0.69 | 3.19 ± 0.49 | 5.33 ± 0.2 | 12.1 | 4.4 ± 0.37 | 7.59 | 5.9 ± 0.21 | 11.1 ± 0.2 | –
5 | MFLAQEIIRKKRDGHALSDEEIRFFINGIRDNTISEGQIAALAMTIFFHDMTMPERVSLTMAMRDSGTVLDWKSLHLNGPIVDKHSTGGVGDVTSLMLGPMVAACGGYIPMISGRGLGHTGGTLDKLESIPGFDIFPDDNRFREIIKDVGVAIIGQTSSLAPADKRFYATRDITATVDSIPLITASILAKKLAEGLDALVMDVKVGSGAFMPTYELSEALAEAIVGVANGAGVRTTALLTDMNQVLASSAGNAVEVREAVQFLTGEYRNPRLFDVTMALCVEMLISGKLAKDDAEARAKLQAVLDNGKAAEVFGRMVAAQKGPTDFVENYAKYLPTAMLTKAVYADTEGFVSEMDTRALGMAVVAMGGGRRQASDTIDYSVGFTDMARLGDQVDGQRPLAVIHAKDENNWQEAAKAVKAAIKLADKAPESTPTVYRRISE | 5.92 ± 0.45 | 5.18 ± 0.25 | 5.58 ± 0.26 | 5.29 ± 0.068 | 3.127 ± 0.0038 | 5.78 ± 0.25 | – | 5.36 ± 0.13 | 10.4 ± 1.3 | 6.07 ± 0.16 | 13.1 ± 1.6 | 5.35 ± 0.43
6 | MAKQDYYEILGVSKTAEEREIRKAYKRLAMKYHPDRNQGDKEAEAKFKEIKEAYEVLTDSQKRAAYDQYGHAAFEQGGMGGGGFGGGADFSDIFGDVFGDIFGGGRGRQRAARGADLRYNMELTLEEAVRGVTKEIRIPTLEECDVCHGSGAKPGTQPQTCPTCHGSGQVQMRQGFFAVQQTCPHCQGRGTLIKDPCNKCHGHGRVERSKTLSVKIPAGVDTGDRIRLAGEGEAGEHGAPAGDLYVQVQVKQHPIFEREGNNLYCEVPINFAMAALGGEIEVPTLDGRVKLKVPGETQTGKLFRMRGKGVKSVRGGAQGDLLCRVVVETPVGLNERQKQLLQELQESFGGPTGEHNSPRSKSFFDGVKKFFDDLTR | 6.07 ± 0.65 | 4.941 ± 0.031 | 6.155 ± 0.042 | 4.51 ± 0.36 | 2.67 ± 0.034 | 4.97 ± 0.22 | 9.44 ± 0.52 | 4.9 ± 0.55 | 8.73 ± 0.55 | 5.193 ± 0.045 | 11.41 ± 0.11 | –
7 | MKNFEVLQPLQNSLSGLPLWVSERILQQINQLTHYEPVIGIMGKTGAGKSSLCNALFAGEVSPVSDVAACTRDPLRFRLQIGEHFMTIVDLPGVGESGVRDTEYAALYREQLPRLDLILWLIKADDRALATDEHFYRQVIGEAYRHKMLFVISQSDKAEPTSGGNILSTEQKQNISRKICLLHELFQPVHPVCAVSVRLQWGLRVMAERMIKCLPREASSPVVALLQHPFRTTVAREQARDDFGETVGAILDTVSTFPLIPAPVRTIIQAVRSSVVSVARAVWDFFF | – | 3.97 | – | – | – | – | 10.6 | – | – | – | – | –
8 | MLRFLNQCSQGRGAWLLMAFTALALELTALWFQHVMLLKPCVLCIYERCALFGVLGAALIGAIAPKTPLRYVAMVIWLYSAFRGVQLTYEHTMLQLYPSPFATCDFMVRFPEWLPLDKWVPQVFVASGDCAERQWDFLGLEMPQWLLGIFIAYLIVAVLVVISQPFKAKKRDLFGR [P0A6M2] | 6.09 | – | > 8 | – | – | – | – | 6.88 | 9.57 | 5.52 | – | –
9 | MNVLRSGIVTMLLLAAFSVQAACTWPAWEQFKKDYISQEGRVIDPSDARKITTSEGQSYGMFSALAANDRAAFDNILDWTQNNLAQGSLKERLPAWLWGKKENSKWEVLDSNSASDGDVWMAWSLLEAGRLWKEQRYTDIGSALLKRIAREEVVTVPGLGSMLLPGKVGFAEDNSWRFNPSYLPPTLAQYFTRFGAPWTTLRETNQRLLLETAPKGFSPDWVRYEKDKGWQLKAEKTLISSYDAIRVYMWVGMMPDSDPQKARMLNRFKPMATFTEKNGYPPEKVDVATGKAQGKGPVGFSAAMLPFLQNRDAQAVQRQRVADNFPGSDAYYNYVLTLFGQGWDQHRFRFSTKGELLPDWGQECANSH | 6.89 ± 0.16 | 6.78 ± 0.68 | 6.5 ± 0.64 | 5.684 ± 0.013 | 3.19 ± 0.12 | 6.41 ± 0.42 | – | 6.48 ± 1.2 | 14 ± 0.56 | 5.86 ± 0.12 | 12.7 ± 0.61 | 5.88 ± 0.14
10 | MKALTYHGPHHVQVENVPDPGVEQADDIILRITATAICGSDLHLYRGKIPQVKHGDIFGHEFMGEVVETGKDVKNLQKGDRVVIPFVIACGDCFFCRLQQYAACENTNAGKGAALNKKQIPAPAALFGYSHLYGGVPGGQAEYVRVPKGNVGPFKVPPLLSDDKALFLSDILPTAWQAAKNAQIQQGSSVAVYGAGPVGLLTIACARLLGAEQIFVVDHHPYRLHFAADRYGAIPINFDEDSDPAQSIIEQTAGHRGVDAVIDAVGFEAKGSTTETVLTNLKLEGSSGKALRQCIAAVRRGGIVSVPGVYAGFIHGFLFGDAFDKGLSFKMGQTHVHAWLGELLPLIEKGLLKPEEIVTHYMPFEEAARGYEIFEKREEECRKVILVPGAQSAEAAQKAVSGLVNAMPGGTI | – | 4.446 ± 0.011 | 4.83 ± 0.24 | 3.69 ± 2.5 | – | 0.447 | 10.2 | 4.75 ± 0.35 | 7.88 ± 0.2 | 4.4 ± 0.32 | 13.1 ± 3.3 | 5.38 ± 0.18
11 | MNKSMLAGIGIGVAAALGVAAVASLNVFERGPQYAQVVSATPIKETVKTPRQECRNVTVTHRRPVQDENRITGSVLGAVAGGVIGHQFGGGRGKDVATVVGALGGGYAGNQIQGSLQESDTYTTTQQRCKTVYDKSEKMLGYDVTYKIGDQQGKIRMDRDPGTQIPLDSNGQLILNNKV [P0AB35] | 0.716 | – | – | 0.623 | 0.834 | – | – | 0.945 | – | 0.416 | 1.21 | 0.776 ± 0.14
12 | MKKNQFLKESDVTAESVFFMKRRQVLKALGISATALSLPHAAHADLLSWFKGNDRPPAPAGKALEFSKPAAWQNNLPLTPADKVSGYNNFYEFGLDKADPAANAGSLKTDPWTLKISGEVAKPLTLDHDDLTRRFPLEERIYRMRCVEAWSMVVPWIGFPLHKLLALAEPTSNAKYVAFETIYAPEQMPGQQDRFIGGGLKYPYVEGLRLDEAMHPLTLMTVGVYGKALPPQNGAPVRLIVPWKYGFKGIKSIVSIKLTRERPPTTWNLAAPDEYGFYANVNPYVDHPRWSQATERFIGSGGILDVQRQPTLLFNGYAAQVASLYRGLDLRENF | 5.46 ± 0.24 | 5.75 ± 0.17 | 5.98 ± 0.35 | 5.33 ± 0.3 | 2.98 ± 0.034 | 5.58 ± 0.24 | 8.4 ± 0.38 | 5.79 ± 0.18 | 11.9 ± 0.43 | 5.91 ± 0.19 | 11.9 ± 0.57 | 4.835 ± 0.0049
13 | MNIYTFDFDEIESQEDFYRDFSQTFGLAKDKVRDLDSLWDVLMNDVLPLPLEIEFVHLGEKTRRRFGALILLFDEAEEELEGHLRFNVRH | 3.85 | 5.5 | 7.32 | 4.41 ± 0.68 | 2.87 | 5.2 | 9.22 ± 0.45 | 4.83 ± 0.14 | 10.2 | 4.26 | 10.1 ± 1.3 | 4.37 ± 1.1

Source: the supplement of paper PMC11246515
